Assay results: article PMC9602544

Target: human plasma fibronectin (human)
Experiment: ELISA; whole-cell ELISA; 1 ug human plasma Fn coated on Maxisorp wells, blocked with 2% BSA; ca. 2.5 x 10^7 washed bacteria added for 2 h at 37°C; attached bacteria detected with anti-B. henselae IgG, absorbance at 450 nm; triplicate

Sequence of human plasma fibronectin (human) (P02751 32-2477): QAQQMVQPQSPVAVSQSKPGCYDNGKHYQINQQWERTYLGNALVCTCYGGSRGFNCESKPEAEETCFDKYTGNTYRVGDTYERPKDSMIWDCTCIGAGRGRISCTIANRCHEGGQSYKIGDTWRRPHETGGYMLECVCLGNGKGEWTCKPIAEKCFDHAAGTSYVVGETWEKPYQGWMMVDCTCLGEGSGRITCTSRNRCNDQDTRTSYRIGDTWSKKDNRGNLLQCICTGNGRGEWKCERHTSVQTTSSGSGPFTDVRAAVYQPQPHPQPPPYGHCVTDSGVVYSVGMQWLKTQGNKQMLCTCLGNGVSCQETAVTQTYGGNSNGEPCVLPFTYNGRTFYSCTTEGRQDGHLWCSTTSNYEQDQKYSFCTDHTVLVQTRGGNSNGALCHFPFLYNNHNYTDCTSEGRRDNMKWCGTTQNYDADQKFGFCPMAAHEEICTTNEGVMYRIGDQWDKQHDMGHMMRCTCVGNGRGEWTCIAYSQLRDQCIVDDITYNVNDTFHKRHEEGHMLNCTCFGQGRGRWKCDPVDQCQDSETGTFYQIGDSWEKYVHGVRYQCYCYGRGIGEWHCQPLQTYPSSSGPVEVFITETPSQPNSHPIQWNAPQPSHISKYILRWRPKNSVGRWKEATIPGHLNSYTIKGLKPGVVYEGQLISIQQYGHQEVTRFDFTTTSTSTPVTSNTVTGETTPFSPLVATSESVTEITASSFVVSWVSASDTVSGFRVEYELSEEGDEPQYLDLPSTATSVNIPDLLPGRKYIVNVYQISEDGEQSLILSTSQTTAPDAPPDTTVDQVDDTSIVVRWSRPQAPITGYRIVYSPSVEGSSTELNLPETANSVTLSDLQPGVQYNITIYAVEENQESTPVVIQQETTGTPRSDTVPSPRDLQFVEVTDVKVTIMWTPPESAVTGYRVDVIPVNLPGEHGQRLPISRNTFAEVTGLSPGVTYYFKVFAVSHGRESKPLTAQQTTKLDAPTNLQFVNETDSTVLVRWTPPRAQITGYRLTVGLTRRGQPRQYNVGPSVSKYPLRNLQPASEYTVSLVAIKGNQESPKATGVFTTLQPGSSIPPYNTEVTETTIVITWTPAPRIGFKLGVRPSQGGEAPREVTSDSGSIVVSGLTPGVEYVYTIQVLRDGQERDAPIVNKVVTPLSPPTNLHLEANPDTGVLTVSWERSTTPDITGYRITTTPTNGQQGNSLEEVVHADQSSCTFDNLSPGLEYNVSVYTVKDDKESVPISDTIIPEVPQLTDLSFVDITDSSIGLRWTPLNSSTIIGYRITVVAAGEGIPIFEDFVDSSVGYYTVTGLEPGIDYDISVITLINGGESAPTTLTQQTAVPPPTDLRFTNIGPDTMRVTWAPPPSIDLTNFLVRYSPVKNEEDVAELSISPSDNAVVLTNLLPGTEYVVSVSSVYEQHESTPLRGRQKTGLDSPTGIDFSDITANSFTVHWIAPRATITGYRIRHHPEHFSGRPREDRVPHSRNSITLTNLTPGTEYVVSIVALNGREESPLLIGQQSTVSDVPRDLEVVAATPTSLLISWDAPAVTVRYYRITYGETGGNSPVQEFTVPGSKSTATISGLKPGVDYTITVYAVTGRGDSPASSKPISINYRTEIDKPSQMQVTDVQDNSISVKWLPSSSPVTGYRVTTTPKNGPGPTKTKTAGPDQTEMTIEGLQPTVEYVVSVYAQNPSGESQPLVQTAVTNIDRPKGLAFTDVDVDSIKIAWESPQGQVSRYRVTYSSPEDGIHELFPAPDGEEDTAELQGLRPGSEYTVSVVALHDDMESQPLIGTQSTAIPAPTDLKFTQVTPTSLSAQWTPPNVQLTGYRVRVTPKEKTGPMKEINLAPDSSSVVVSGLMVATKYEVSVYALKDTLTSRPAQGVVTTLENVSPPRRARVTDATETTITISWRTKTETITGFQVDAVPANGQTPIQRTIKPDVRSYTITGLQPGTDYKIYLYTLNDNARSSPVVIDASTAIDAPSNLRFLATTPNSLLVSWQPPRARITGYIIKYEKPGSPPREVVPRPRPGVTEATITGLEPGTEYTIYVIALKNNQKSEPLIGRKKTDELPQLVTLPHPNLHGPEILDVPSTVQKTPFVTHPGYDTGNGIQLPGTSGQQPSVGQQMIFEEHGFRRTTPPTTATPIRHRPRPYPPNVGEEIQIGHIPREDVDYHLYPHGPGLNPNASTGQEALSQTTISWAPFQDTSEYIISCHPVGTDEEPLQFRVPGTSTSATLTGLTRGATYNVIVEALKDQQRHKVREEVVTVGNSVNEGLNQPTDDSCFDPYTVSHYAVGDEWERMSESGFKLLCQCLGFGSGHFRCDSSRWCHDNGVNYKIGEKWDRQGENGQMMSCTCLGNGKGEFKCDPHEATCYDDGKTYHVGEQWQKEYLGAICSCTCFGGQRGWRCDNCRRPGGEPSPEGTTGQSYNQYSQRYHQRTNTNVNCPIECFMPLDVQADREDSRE

Bartonella adhesin A (BadA) of B. henselae Marseille, wild type (from UniProt Q5MWV9 48-3082) (natural protein)
absorbance at 450 nm, whole-cell ELISA: 0.908
